Assay results as given in the Immune Epitope Database (IEDB).

What was measured:
Test in all cases: IEDB peptide-MHC binding, purified MHC/competitive/radioactivity; filed as Kd, often an IC50 or EC50 that approximates it; ≥ and ≤ were set here for values at or beyond the usual limits of such assays
HLA-A*31:01 = target: HLA-A*31:01
HLA-A*11:01 = target: HLA-A*11:01
HLA-A*68:01 = target: HLA-A*68:01
HLA-A*03:01 = target: HLA-A*03:01
HLA-A*33:01 = target: HLA-A*33:01
[1] = source organism: Vaccinia virus WR
[2] = source organism: SARS coronavirus Tor2
[3] = source organism: Mammarenavirus juninense
[4] = source organism: Lassa virus Josiah
[5] = source organism: Mammarenavirus lassaense
[6] = source organism: Lymphocytic choriomeningitis virus (strain Armstrong)
[7] = source organism: Mammarenavirus guanaritoense
[8] = source organism: Dengue virus 2 Peru/IQT2913/1996

Sequence | Kd (HLA-A*31:01; [1]) [nM] | Kd (HLA-A*11:01; [1]) [nM] | Kd (HLA-A*68:01; [1]) [nM] | Kd (HLA-A*03:01; [1]) [nM] | Kd (HLA-A*33:01; [1]) [nM] | other results
DFESVTNSVY | 15600 | ≥ 25400 | 11800 | ≥ 33300 | 14800 | –
LLFVVEVVDK | – | – | – | – | – | Kd (HLA-A*31:01; [2]): 6560 nM; Kd (HLA-A*11:01; [2]): 3050 nM; Kd (HLA-A*68:01; [2]): 1330 nM; Kd (HLA-A*03:01; [2]): 4390 nM; Kd (HLA-A*33:01; [2]): 6080 nM
GIFKNNDVR | 11500 | 1660 | 132 | 2210 | ≥ 28400 | –
EIWTKEGER | – | – | – | – | – | Kd (HLA-A*33:01; source organism: Dengue virus 2 Jamaica/1409/1983): 47.9 nM
SIYSRPKIK | 4890 | 6.62 | 398 | 2.67 | ≥ 37900 | –
ESRDRKWLY | ≥ 61000 | 10300 | 3930 | ≥ 51200 | 10100 | –
ELNIVDEIIK | ≥ 70000 | 19000 | 2650 | 11800 | 13900 | –
ILIKRRQQK | – | – | – | – | – | Kd (HLA-A*03:01; source organism: Homo sapiens): 28.9 nM
ALNHTKKWK | – | – | – | – | – | Kd (HLA-A*31:01; [2]): 528 nM; Kd (HLA-A*11:01; [2]): 5640 nM; Kd (HLA-A*68:01; [2]): ≥ 77700 nM; Kd (HLA-A*03:01; [2]): 784 nM; Kd (HLA-A*33:01; [2]): ≥ 77700 nM
RTLGRNKKPR | – | – | – | – | – | Kd (HLA-A*31:01; source organism: Dengue virus 3 Martinique/1243/1999): 8.39 nM
ANKQYIHCFR | – | – | – | – | – | Kd (HLA-A*31:01; [3]): 12.8 nM; Kd (HLA-A*11:01; [3]): ≥ 46600 nM; Kd (HLA-A*68:01; [3]): 9810 nM; Kd (HLA-A*03:01; [3]): 17800 nM; Kd (HLA-A*33:01; [3]): 130 nM
IFPGDKTSY | ≥ 56700 | 11700 | 17700 | 11600 | ≥ 77700 | –
IIFLKLFKK | 5.67 | 4.44 | 13.2 | 8.76 | 4.85 | –
ALLRALRLTK | – | – | – | – | – | Kd (HLA-A*31:01; [2]): 233 nM; Kd (HLA-A*11:01; [2]): 24.5 nM; Kd (HLA-A*68:01; [2]): 1790 nM; Kd (HLA-A*03:01; [2]): 3.17 nM; Kd (HLA-A*33:01; [2]): ≥ 70000 nM
GLVASIKNFK | – | – | – | – | – | Kd (HLA-A*31:01; [2]): 7560 nM; Kd (HLA-A*11:01; [2]): 1320 nM; Kd (HLA-A*68:01; [2]): 507 nM; Kd (HLA-A*03:01; [2]): 630 nM; Kd (HLA-A*33:01; [2]): ≥ 20600 nM
QQLRVESSSK | – | – | – | – | – | Kd (HLA-A*31:01; [2]): 435 nM; Kd (HLA-A*11:01; [2]): 721 nM; Kd (HLA-A*68:01; [2]): 1950 nM; Kd (HLA-A*03:01; [2]): 588 nM; Kd (HLA-A*33:01; [2]): 1260 nM
DLIVTFRERY | 137 | 52.6 | 23.5 | 35.1 | 1240 | –
VIPFDDIVR | 338 | 9600 | 174 | ≥ 78000 | 302 | –
IAQSKGLYR | – | – | – | – | – | Kd (HLA-A*31:01; [2]): 98 nM; Kd (HLA-A*11:01; [2]): 224 nM; Kd (HLA-A*68:01; [2]): 105 nM; Kd (HLA-A*03:01; [2]): 3880 nM; Kd (HLA-A*33:01; [2]): 152 nM

Sequence | Kd (HLA-A*31:01; [1]) [nM] | Kd (HLA-A*11:01; [1]) [nM] | Kd (HLA-A*68:01; [1]) [nM] | Kd (HLA-A*03:01; [1]) [nM] | Kd (HLA-A*33:01; [1]) [nM] | other results
KMLLNRFTTR | – | – | – | – | – | Kd (HLA-A*31:01; source organism: Dengue virus 4 Philippines/H241/1956): 3.77 nM
NFGTIILNK | 1270 | 1090 | 508 | 1350 | 1540 | –
DVKVLAARLK | 3000 | 2350 | 592 | 1160 | 5070 | –
AAISDYDYY | – | – | – | – | – | Kd (HLA-A*31:01; [2]): 17500 nM; Kd (HLA-A*11:01; [2]): 1100 nM; Kd (HLA-A*68:01; [2]): 4810 nM; Kd (HLA-A*03:01; [2]): 698 nM; Kd (HLA-A*33:01; [2]): ≥ 77700 nM
NAISSRVDRY | 11000 | 18000 | 10700 | ≥ 42600 | ≥ 70000 | –
RICTREEFTR | – | – | – | – | – | Kd (HLA-A*31:01; source organism: Dengue virus 1 Brazil/97-11/1997): ≥ 70000 nM
SCPKPHRLNH | – | – | – | – | – | Kd (HLA-A*31:01; [4]): ≥ 38500 nM; Kd (HLA-A*11:01; [4]): ≥ 69700 nM; Kd (HLA-A*68:01; [4]): ≥ 70100 nM; Kd (HLA-A*03:01; [4]): ≥ 21300 nM; Kd (HLA-A*33:01; [4]): ≥ 34300 nM
YVIRHVDGK | ≥ 77900 | 10.2 | 1.72 | 1450 | ≥ 77700 | –
ALCTFLLNK | – | – | – | – | – | Kd (HLA-A*31:01; [2]): 352 nM; Kd (HLA-A*11:01; [2]): 2.74 nM; Kd (HLA-A*68:01; [2]): 1050 nM; Kd (HLA-A*03:01; [2]): 0.778 nM; Kd (HLA-A*33:01; [2]): 6670 nM
SAFNDDGIY | 9580 | 14000 | 1860 | ≥ 78000 | ≥ 77700 | –
QCWRSFLNK | – | – | – | – | – | Kd (HLA-A*31:01; [5]): 880 nM; Kd (HLA-A*11:01; [5]): 4950 nM; Kd (HLA-A*68:01; [5]): 13600 nM; Kd (HLA-A*03:01; [5]): 567 nM; Kd (HLA-A*33:01; [5]): 743 nM
SCQGSDDIR | – | – | – | – | – | Kd (HLA-A*31:01; [6]): ≥ 33900 nM; Kd (HLA-A*11:01; [6]): ≥ 77900 nM; Kd (HLA-A*68:01; [6]): ≥ 21800 nM; Kd (HLA-A*03:01; [6]): ≥ 78000 nM; Kd (HLA-A*33:01; [6]): ≥ 51400 nM
TILLSDKGK | 7390 | 81.2 | 198 | 1540 | ≥ 44300 | –
FTVKLGGVFH | – | – | – | – | – | Kd (HLA-A*31:01; [7]): 695 nM; Kd (HLA-A*68:01; [7]): 27.4 nM; Kd (HLA-A*03:01; [7]): 14800 nM; Kd (HLA-A*33:01; [7]): 12500 nM
FLMSGRGIGK | – | – | – | – | – | Kd (HLA-A*11:01; [8]): 75.2 nM; Kd (HLA-A*03:01; [8]): 4.97 nM
NFDYPFFRK | 90.2 | 191 | 393 | 9090 | 308 | –
LSSIKSKSRR | 644 | 2030 | 163 | ≥ 32100 | 16500 | –
VSFLLLAGR | – | – | – | – | – | Kd (HLA-A*11:01; source organism: Mammarenavirus choriomeningitidis): 17.9 nM
SSFIMRNFLR | 1.3 | 8.89 | 13.6 | 2100 | 870 | –
